In data set [1] the test system is prostaglandin F2α receptor (FP). Nature of the data set: Effect of intracellular messenger altering agents on [3H]PGF2α binding and on FPRP inhibition of it. The data set is classed as cell-based. The method, then: In a third experiment, transfected cells were treated for 30 min with exposure to the following: phorbol 12-myristate 13-acetate 10^-8 M, prostaglandin E1, 10^-7 M, A23187 10^-6 M, okadaic acid 10^-6 M, or 8-Br-cAMP 10^-5 M (Table 4).
The effect of brefeldin A (3 μg/ml, 2 hr), chloroquine (100 μM, 6 hr) and tunicamysin (2.5 μg/ml, 20 hr) was determined.

For data set [2], the target named is prostaglandin F2α receptor (FP).
Method: [^3 H]PGF2α binding (DPM) was normalized to the average quantity of protein per culture dish (65 μg), and plotted against unlabeled PGF2α concentration.
For [^3 H]PGF2α binding experiments, the above electroporated cells were divided equally and cultured in six 35×10 mm culture dishes with 1.5 ml culture media each. […] Briefly, media was removed from the culture dishes, the dishes were washed 4 times in 1 L each of phosphate buffered saline (PBS, 10 mM phosphate), 150 mM NaCl, pH 7.0), and 0.35 ml of binding buffer (1×Hanks, 0.1% BSA, 2 mM MnCl2, 0.5 mM CaCl2, pH 6.0) containing either 2×10^-9 M [^3 H]PGF2α (total binding) or 2×10^-9 M [^3 H]PGF2α plus 2×10^-6 M unlabelled PGF2α (non-specific binding). The binding incubation was at 37° for 20 minutes. Following incubation, the binding buffer was removed, the dishes were washed 4 times in 1 L each of PBS, then 0.5 ml of 1.0M NaOH was added to each dish. Dishes were then incubated overnight at 37° C., the NaOH solution removed, neutralized with 0.5 ml of 1M HCL (made with 200 mM phosphate buffer pH 7.4), vortexed, and aliquots were analyzed for protein by the Bradford technique (1976) Anal. Biochem. 72:248-252, or analyzed for ^3 H content with a Beckman 6000 TA liquid scintillation counter (using Aquasol-2, New England Nuclear, Boston, Mass.; approximate counting efficiency 50-55%).
Saturation binding. A saturation binding experiment was performed to examine the effect of FPRP on FP. Scatchard analysis should discriminate between competitive and noncompetitive methods of FPRP action. [^3 H]PGF2α binding was assessed following transfection with either FP+pSG5 or FP+anti-sense FPRP (2 controls) and following transfection with FP+FPRP or FP+ dss FPRP (2 experimentals). Data are shown in FIG. 9A for unlabelled PGF2α inhibition of [^3 H]PGF2α binding and in FIG. 9B for the Scatchard transformation of this same data.
The target is the same in data set [3]. The settings on record: literature value; read-out: [^3 H]PGF2α binding affinity reported by Ito et al. (1994); cited from earlier work.
Data set [4] concerns COS cells (endogenous specific [3H]PGF2α binding). Kind of data set: [3H]PGF2α binding to COS cell cultures transfected with FPRP cDNA construct alone. In kind it is cell-based. The settings on record: COS cells transfected with FPRP cDNA construct only, 24 h. The method, then:
COS cells were electroporated, cultured for 24 h and analyzed for specific [^3 H]PGF2α binding. Total transfected DNA is indicated on the abscissa. Data points represent mean±standard deviation, n=3.
Methods. COS-1 cells were used for transient expression experiments. Briefly, 70-80% confluent cultures (grown in Ham's F-12 media plus 8% fetal bovine serum, with media replacement 24 hours prior to transfection)were harvested with a trypsin/EDTA solution (final concentration: 0.02% ethylenediaminetetracetic acid, 0.05% sodium bicarbonate, and 0.5% Enzart 40x trypsin), washed twice with culture media, then resuspended in ice cold culture media at approximately 1.66×10^7 cells per ml. Aliquots of 0.15 ml (2.5×10^6 cells) were placed in electroporation cuvettes (BioRad, Hercules, Calif.) along with plasmid DNA, placed on ice for 10 minutes, electroporated with a Bio Rad electroporater (settings: 250 μF, […], .infin..OMEGA., 0.4 cm cuvette), 1 ml of ice cold culture media was added and the cells were left on ice for 10 minutes before plating.
The binding incubation was at 37° for 20 minutes.

Data set [5] concerns prostaglandin F2α receptor (FP). Nature of the data set: Cotransfection of a third construct along with FP and FPRP, [3H]PGF2α binding. In kind it is cell-based. The settings on record: FP + FPRP, no third construct; FP + pSG5 = 100. The text has this:
Therefore, a strategy based on cotransfection of a third construct (along with FP and FPRP) was pursued. These third party constructs included ones coding for the protease inhibitors alpha-l trypsin inhibitor and crmA, an inhibitor of cell death, bcl2, and few nonspecific control molecules including the vitamin D receptor, a secreted immunoglobulin molecule, and the empty parent vector pSG5 only. All groups and treatments were compared with control treatment of FP+pSG5 vs. FP+FPRP.

Data set [6] shares this test system. The method, then: Cells transfected with either FP and pSG5 or FP and FPRP were plated in normal media containing serum and at either 21 h, 6 h or 0 h prior to [^3 H]PGF2α binding analysis had their media replaced with serum deficient medium, in order to obviate any effects due to hormones or factors present in the added serum.
The source holds these as a separate data set.

The test system is the same in data set [7]. Nature of the data set: [3H]PGF2α specific binding to COS cells cotransfected with FP cDNA and a test cDNA construct. The data set is classed as cell-based, rat, mouse.
The test system is the same in data set [8]. The protocol:
Models for FPRP interaction with FP were tested as follows. First, a conditioned media experiment was performed with either the pSGS vector, or the FPRP cDNA construct transfected into COS cells. Following plating and culture of these transfected cells for 24 hours the media in which the cells were grown was placed on cultures of cells transfected with FP. The cells transfected with FP and cultured with the conditioned medium for 4 hours were then analyzed for [^3 H]PGF2α binding. In a second experiment, FPRP or pSG5 were transfected as described above into one set of cells, FP alone into a second set of cells, and the cells co-cultured in the ratios shown in Table 3.
Briefly, COS cells were transfected with FP, pSG5, or FPRP, and plated. 24 h post transfection, media was removed from the pSG5 and FPRP transfected cultures, centrifuged 7 min at 1000×g, and added back to the FP culture media at the indicated ratios. Following 4 h of this media treatment, [^3 H]PGF2α binding was analyzed. As a control, FP and FPRP were cotransfected. For co-cultured cells, COS cells were transfected with FP, pSG5, or FPRP, mixed at a 1:1 ratio and cultured. As a control, cells were either transfected with FP or FP+FPRP.
This is another data set of the same source.

The mark [9] stands for this setting: control treatment (EtOH vehicle or Control), no agent.

Values joined by “and” are separate entries in the source; they are usually repeats but may differ in a detail not shown here. Equal values may be shown once. Read-outs that look alike come from different tables or passages of the source.

Regarding `CCCCC[C@H](O)/C=C/[C@@H]1[C@@H](C/C=C\CCCC(=O)O)[C@@H](O)C[C@H]1O` [PGF2α, Prostaglandin F2α], the “% Control [^3 H]PGF2α Binding, FP + FPRP” value in data set [1] (FP + FPRP transfected cells treated with the agent) was found to be 40 ± 3%. The “% Control [^3 H]PGF2α Binding, FP + pSG5” value in [1] (FP + pSG5 transfected cells treated with the agent) came out at 73 ± 9%. Besides, the “effect of agent on basal [^3 H]PGF2α binding” value in [1] (FP transfected cells pretreated with the agent) is given as “decreased subsequent basal FP binding”. For the same molecule, in [1] (in presence of the agent at the concentration/time given), the “% Inhibition (FPRP inhibition of [^3 H]PGF2α binding)” value turned out to be 45%. Further, the Kd in [2] (read-out: [^3 H]PGF2α binding affinity, FP + pSG5, asFPRP, FPRP or dssFPRP: all 4 treatments similar) is 8 nM; in data set [3] it was 25 nM.

B1: FPRP: rat prostaglandin F2α receptor regulatory protein (SEQ ID NO:1), expressed from FPRP cDNA in pSG5, construct 232 (SEQ ID NO:10) (protein)
chain: MGRPAPRPLLLALLSLAVCRGRVVRVPAGTLVRVVGTELVIPCNVSDYDGPSEQNFDWSFSSSGSSFVELASTWEVGFPAQQYRERLQRGDILLRRTANDAVELHIKNVQPSDQGHYKCSTPSTDATVQGNYEDTMQVKVLADALVVGPSSRPPPGLSLREGEPFELRCIASTTSPLHTHLALRWELHRGPVHRSILALSHEGRFHPGPGYEQRYHSGDVRLDTVGSDAYRLSVARALSADQGSYRCVVSEWITEQGSWQEIQEKAVEVATVVIQPTALQLAVPRTVSVTEGKDLDLSCNITTDRVDDVRPEVTWYFKKTPDTSLLASHMLARLDRDSLVHSSPHVALSHVDTRSYHLLVRDVSKENSGYYLCLVALWAPGHNRSWHKVAEAMSAPSGVSVTWLEPEYQVYLNASKVPGFSDDPTELQCRVIDTKRVDAGVRLTVSWYYRMNRRNDDVVASELLAVMDGDWTLRYGERSKQRAQDGEFIFSKEHTDTFSFRIQRTTEEDRGSYYCVVSAWTRQRNSSWVKSKDVFSKPVNIFWASEDSVLVVKARQPKPFFAAGNTFEMTCKVSSKNIKSPRYSVLITAEKPVGDLSSPNETKYIISLDQDSVVKLENWTDASRVDGVVLEKVQEDEFRYRMYQTQVSDAGLYRCMVTAWSPIGGSLWREAATSLSNPIEIDFQTSGPIFNASVHSDTLSVTRGDLIKLFCIVTVDGAVLDPDDMAFDVSWFAVHSFGLDKAPILLSSLDRKGVVTTGQRDWKSTVSLERVSVLEFLLQVHGSEDQDFGNYYCSVTPWVRSPTGSWQREAEIHSRPIFITVKMDVLNAFKYPLLIGVGLSTVIRLLSCLIGYCSSHWCCKKEVRETRRERRRLMSMEMD
Take B1: the “effect of FPRP expression on [^3 H]PGF2α binding” value in data set [4] was “marked, dose dependent decrease”. In data set [1] (setting [9]), the “% Control [^3 H]PGF2α Binding, FP + FPRP” value is 52 ± 3% and 37 ± 3%. The “% Inhibition (FPRP inhibition of [^3 H]PGF2α binding)” value in data set [1] (setting [9]) is 48% and 63%. The “% Control [^3 H]PGF2α Binding” value in data set [5] came to 37 ± 5%; in [6] (Serum Removal: t = 1 h), 38 ± 7%; in data set [6] (Serum Removal: t = -6 h) it was 48 ± 4%; in [6] (Serum Removal: t = -21 h) it was 41 ± 3%; in data set [8] (FP + FPRP cotransfection pos. control of the conditioned media experiment), 43 ± 5%; in [8] (FP + FPRP cotransfection positive control of the co-culture experiment), 45 ± 3%. The “% Control [^3 H]PGF2α Binding” value came out at 103 ± 10% in [8] (FP cells + 1:2 media from FPRP transfection, 4 h); 112 ± 10% in data set [8] (FP cells + 1:4 media from FPRP transfection, 4 h); 113 ± 11% in [8] (FP cells + 1:8 media from FPRP transfection, 4 h); 120 ± 10% in data set [8] (FP transfected cells co-cultured 1:1 with FPRP transfected cells). Besides, in data set [6] (serum deficient medium 21 h, 6 h or 0 h prior to binding), the “effect of growth in serum deficient media on percent of FPRP inhibition” value is “did not alter”. The “% CONTROL, [^3 H]PGF2α specific binding” value in data set [7] (COS cells cotransfected with FP + the named DNA, FP alone = 100) was 30-50%. Besides, the “inhibitory activity of FPRP on [^3 H]PGF2α binding” value in [7] (COS cells nearly 100% confluent, media replaced ≈48 h prior to transfection) was “approximately 60%”. Moreover, the “% CONTROL [^3 H]PGF2α BINDING (FPRP inhibitory activity)” value in data set [7] (Standard: 80% confluent cells, 40 μg/dish post-electroporation, binding assay at 24 h) is given as 30-50%; in [7] (binding buffer of Weipz et al. (1992), pH 6.0) it was 53 ± 8%; in data set [7] (binding buffer: standard buffer pH 6.0) it was 41 ± 5%; in data set [7] (binding buffer: standard buffer pH 7.0), 45 ± 3%; in data set [7] (density of cells post-electroporation: 40 μg/dish) it was 40 ± 5%; in [7] (density of cells post-electroporation: 20-30 μg/dish), 30 ± 5%. The “% CONTROL [^3 H]PGF2α BINDING (FPRP inhibitory activity)” value is given as 43 ± 4% in data set [7] (density of cells post-electroporation: 60-80 μg/dish); 35 ± 3% in [7] (density of cells prior to electroporation: 60-70% confluent); 40 ± 5% in data set [7] (density of cells prior to electroporation: 80% confluent); 38 ± 4% in data set [7] (density of cells prior to electroporation: 100% confluent); 36 ± 3% in [7] (time between electroporation and binding: 24 hr); 33 ± 3% in data set [7] (time between electroporation and binding: 48 hr). Further, the “effect on [^3 H]PGF2α binding to FP” value in [7] (cotransfection with rFP or mFP) was “inhibited rFP and mFP equally”. Further, in the data set with COS cells, the “decrease of viability of the transfected cells” value was 20-60%. Also, the “ability to inhibit [^3 H]PGF2α binding to FP” value in data set [8] (conditioned media or co-culture type experiments) is “unable to inhibit”. The “inhibition of [^3 H]PGF2α binding to FP” value in [2] (saturation binding experiment, FP + FPRP cotransfection) is listed as “approximately 60%”. Moreover, in [2] (saturation binding, Scatchard analysis), the “type of inhibition of [^3 H]PGF2α binding” value was “non-competitive inhibitor”.

These data come from patent US5747660A, “Nucleic acid encoding prostaglandin F2α receptor regulatory protein” (priority 1995, dated 1998).
